Results reported in patent publication US20050106100.

Key:
[1] = biological target: T1, Ac-DArg-P-Aib-G˜Hphe-LA-Ahxh-Hynic (not fully specified)
T1 chain: RPXGXLA

Ac-LRY˜Cha-TA-Ahxh-Hynic = biological target: T2, Ac-LRY˜Cha-TA-Ahxh-Hynic (not fully specified)
T2 chain: LRYXTA

[2] = biological target: T3, Ac-P-Cha-G˜LL-Ahxh-Ac[C14] (not fully specified)
T3 chain: PXGLL

[3] = biological target: T4, Ac-P-Cit-Abu˜LTA-Ahxh-Hynic (not fully specified)
T4 chain: PXXLTA

[4] = biological target: T5, Ac-P-Cit-G˜Hphe-OL-Ahxh-Ac[C14] (not fully specified)
T5 chain: PXGXXL

[5] = biological target: T6, Ac-P-DArg-R˜LTA-Ahxh-Hynic (not fully specified)
T6 chain: PRRLTA

Ac-PLG-LYV-Ahxh-Ac[C14] = biological target: T7, Ac-PLG-LYV-Ahxh-Ac[C14]
T7 chain: PLGLYV

[6] = biological target: T8, Ac-PLG˜Ahp-YL-Ahxh-Ac[C14] (not fully specified)
T8 chain: PLGXYL

[7] = biological target: T9, Ac-PLG˜Hphe-Cit-L-Ahxh-Hynic (not fully specified)
T9 chain: PLGXXL

[8] = biological target: T10, Ac-PLG˜Hphe-K(Me)2-L-Ahxh-Hynic (not fully specified)
T10 chain: PLGXKL

[9] = biological target: T11, Ac-PLG˜Hphe-KL-Ahxh-Hynic
T11 chain: PLGXKL

[10] = biological target: T12, Ac-PLG˜Hphe-OL-Ambh-Hynic
T12 chain: PLGXXL

[11] = biological target: T13, Ac-PLG˜Hphe-OLA-Ahxh-Hynic
T13 chain: PLGXXLA

[12] = biological target: T14, Ac-PLG˜Hphe-YL-Ahxh-Hynic (not fully specified)
T14 chain: PLGXYL

Ac-PLG˜L-Cha-Ahxh-Hynic = biological target: T15, Ac-PLG˜L-Cha-Ahxh-Hynic
T15 chain: PLGLX

Ac-PLG˜LL-Ahxh-Ac[C14] = biological target: T16, Ac-PLG˜LL-Ahxh-Ac[C14] (not fully specified)
T16 chain: PLGLL

Ac-PLG˜LL-Ambh-Hynic = biological target: T17, Ac-PLG˜LL-Ambh-Hynic
T17 chain: PLGLL

Ac-PLG˜LR-Ahxh-Hynic = biological target: T18, Ac-PLG˜LR-Ahxh-Hynic (not fully specified)
T18 chain: PLGLR

Ac-PLG˜LRL-Ahxh-Hynic = biological target: T19, Ac-PLG˜LRL-Ahxh-Hynic (not fully specified)
T19 chain: PLGLRL

Ac-PLG˜LYT-Ahxh-Ac[C14] = biological target: T20, Ac-PLG˜LYT-Ahxh-Ac[C14] (not fully specified)
T20 chain: PLGLYT

[13] = biological target: T21, Ac-PLG˜Pabu-Cit-L-Ahxh-Ac[C14] (not fully specified)
T21 chain: PLGXXL

[14] = biological target: T22, Ac-POG˜Hphe-LTR-Ahxh-Hynic
T22 chain: PXGXLTR

[15] = biological target: T23, Ac-PRG˜Hphe-Dab-A-Ahxh-Hynic
T23 chain: PRGXXA

Ac-PRG˜LLT-Ahxh-Hynic = biological target: T24, Ac-PRG˜LLT-Ahxh-Hynic
T24 chain: PRGLLT

[16] = biological target: T25, Ac-Tic-Cit-G˜Hphe-SA-Ahxh-Hynic
T25 chain: XXGXSA

[17] = biological target: T26, H-DArg-P-Cit-G˜cLeu-LA-Ahxh-Hynic (not fully specified)
T26 chain: RPXGXLA

[18] = biological target: T27, NLys-NLys-PLG˜Hphe-YL-Ahxh-Hynic
T27 chain: XXPLGXYL

Piv-PLG˜LYT-Ahxh-Hynic = biological target: T28, Piv-PLG˜LYT-Ahxh-Hynic
T28 chain: PLGLYT

[19] = biological target: T29, Ac-NGlu-PLG˜Hphe-YL-Ambh-Hynic (not fully specified)
T29 chain: XPLGXYL

B1: MMP-2 (protein)
chain: APSPIIKFPGDVAPKTDKELAVQYLNTFYGCPKESCNLFVLKDTLKKMQKFFGLPQTGDLDQNTIETMRKPRCGNPDVANYNFFPRKPKWDKNQITYRIIGYTPDLDPETVDDAFARAFQVWSDVTPLRFSRIHDGEADIMINFGRWEHGDGYPFDGKDGLLAHAFAPGTGVGGDSHFDDDELWTLGEGQVVRVKYGNADGEYCKFPFLFNGKEYNSCTDTGRSDGFLWCSTTYNFEKDGKYGFCPHEALFTMGGNAEGQPCKFPFRFQGTSYDSCTTEGRTDGYRWCGTTEDYDRDKKYGFCPETAMSTVGGNSEGAPCVFPFTFLGNKYESCTSAGRSDGKMWCATTANYDDDRKWGFCPDQGYSLFLVAAHEFGHAMGLEHSQDPGALMAPIYTYTKNFRLSQDDIKGIQELYGASPDIDLGTGPTPTLGPVTPEICKQDIVFDGIAQIRGEIFFFKDRFIWRTVTPRDKPMGPLLVATFWPELPEKIDAVYEAPQEEKAVFFAGNEYWIYSASTLERGYPKPLTSLGLPPDVQRVDAAFNWSKNKKTYIFAGDKFWRYNEVKKKMDPGFPKLIADAWNAIPDNLDAVVDLQGGGHSYFFKGAYYLKLENQSLKSVKFGSIKSDWLGC
Protein B1 has a Kcat/Km [1] of 18600 M⁻¹ s⁻¹, a Kcat/Km (Ac-LRY˜Cha-TA-Ahxh-Hynic) of 0 M⁻¹ s⁻¹ and a Kcat/Km [2] of 24700 M⁻¹ s⁻¹. The Kcat/Km [3] was 55400 M⁻¹ s⁻¹, the Kcat/Km [4] was 42500 M⁻¹ s⁻¹ and the Kcat/Km [5] was 6880 M⁻¹ s⁻¹. The Kcat/Km (Ac-PLG-LYV-Ahxh-Ac[C14]) was 396000 M⁻¹ s⁻¹, the Kcat/Km [6] was 38700 M⁻¹ s⁻¹ and the Kcat/Km [7] was 157000 M⁻¹ s⁻¹. The Kcat/Km [8] was 72000 M⁻¹ s⁻¹, the Kcat/Km [9] was 78900 M⁻¹ s⁻¹ and the Kcat/Km [10] was 42700 M⁻¹ s⁻¹. For the same protein, the Kcat/Km [11] was 29500 M⁻¹ s⁻¹, the Kcat/Km [12] was > 100000 M⁻¹ s⁻¹ and the Kcat/Km (Ac-PLG˜L-Cha-Ahxh-Hynic) was 120000 M⁻¹ s⁻¹. The Kcat/Km (Ac-PLG˜LL-Ahxh-Ac[C14]) was 148000 M⁻¹ s⁻¹, the Kcat/Km (Ac-PLG˜LL-Ambh-Hynic) was 33600 M⁻¹ s⁻¹ and the Kcat/Km (Ac-PLG˜LR-Ahxh-Hynic) was 162000 M⁻¹ s⁻¹. The Kcat/Km (Ac-PLG˜LRL-Ahxh-Hynic) was 182000 M⁻¹ s⁻¹, the Kcat/Km (Ac-PLG˜LYT-Ahxh-Ac[C14]) was 413000 M⁻¹ s⁻¹ and the Kcat/Km [13] was 0 M⁻¹ s⁻¹. The Kcat/Km [14] was > 500000 M⁻¹ s⁻¹, the Kcat/Km [15] was 591000 M⁻¹ s⁻¹ and the Kcat/Km (Ac-PRG˜LLT-Ahxh-Hynic) was 98600 M⁻¹ s⁻¹. For the same protein, the Kcat/Km [16] was 3100 M⁻¹ s⁻¹, the Kcat/Km [17] was 77 M⁻¹ s⁻¹ and the Kcat/Km [18] was 26300 M⁻¹ s⁻¹. The Kcat/Km (Piv-PLG˜LYT-Ahxh-Hynic) was 569000 M⁻¹ s⁻¹.

B2: human MMP-9 (protein)
chain: MRTPRCGVPDLGRFQTFEGDLKWHHHNITYWIQNYSEDLPRAVIDDAFARAFALWSAVTPLTFTRVYSRDADIVIQFGVAEHGDGYPFDGKDGLLAHAFPPGPGIQGDAHFDDDELWSLGKGVVVPTRFGNADGAACHFPFIFEGRSYSACTTDGRSDGLPWCSTTANYDTDDRFGFCPSERLYTQDGNADGKPCQFPFIFQGQSYSACTTDGRSDGYRWCATTANYDRDKLFGFCPTRADSTVMGGNSAGELCVFPFTFLGKEYSTCTSEGRGDGRLWCATTSNFDSDKKWGFCPDQGYSLFLVAAHEFGHALGLDHSSVPEALMYPMYRFTEGPPLHKDDVNGIRHLYGPRPEPEPRPPTTTTPQPTAPPTVCPTGPPTVHPSERPTAGPTGPPSAGPTGPPTAGPSTATTVPLSPVDDACNVNIFDAIAEIGNQLYLFKDGKYWRFSEGRGSRPQGPFLIADKWPALPRKLDSVFEERLSKKLFFFSGRQVWVYTGASVLGPRRLDKLGLGADVAQVTGALRSGRGKMLLFSGRRLWRFDVKAQMVDPRSASEVDRMFPGVPLDTHDVFQYREKAYFCQDRFYWRVSSRSELNQVDQVGYVTYDILQCPED
For B2, the Kcat/Km [1] was 0 M⁻¹ s⁻¹, the Kcat/Km (Ac-LRY˜Cha-TA-Ahxh-Hynic) was 811 M⁻¹ s⁻¹ and the Kcat/Km [19] was > 100000 M⁻¹ s⁻¹. For the same protein, the Kcat/Km [2] was 180000 M⁻¹ s⁻¹, the Kcat/Km [3] was 77800 M⁻¹ s⁻¹ and the Kcat/Km [4] was 28600 M⁻¹ s⁻¹. The Kcat/Km [5] was 0 M⁻¹ s⁻¹, the Kcat/Km (Ac-PLG-LYV-Ahxh-Ac[C14]) was > 500000 M⁻¹ s⁻¹ and the Kcat/Km [6] was 60400 M⁻¹ s⁻¹. For the same protein, the Kcat/Km [7] was 171000 M⁻¹ s⁻¹, the Kcat/Km [8] was 55000 M⁻¹ s⁻¹ and the Kcat/Km [9] was 93400 M⁻¹ s⁻¹. The Kcat/Km [10] was 57700 M⁻¹ s⁻¹, the Kcat/Km [11] was 14100 M⁻¹ s⁻¹ and the Kcat/Km [12] was > 100000 M⁻¹ s⁻¹. It also gave a Kcat/Km (Ac-PLG˜L-Cha-Ahxh-Hynic) of 147000 M⁻¹ s⁻¹, a Kcat/Km (Ac-PLG˜LL-Ahxh-Ac[C14]) of 134000 M⁻¹ s⁻¹ and a Kcat/Km (Ac-PLG˜LL-Ambh-Hynic) of 36300 M⁻¹ s⁻¹. The Kcat/Km (Ac-PLG˜LR-Ahxh-Hynic) was 143000 M⁻¹ s⁻¹, the Kcat/Km (Ac-PLG˜LRL-Ahxh-Hynic) was 167000 M⁻¹ s⁻¹ and the Kcat/Km (Ac-PLG˜LYT-Ahxh-Ac[C14]) was > 500000 M⁻¹ s⁻¹. For the same protein, the Kcat/Km [13] was 0 M⁻¹ s⁻¹, the Kcat/Km [14] was 105000 M⁻¹ s⁻¹ and the Kcat/Km [15] was 474000 M⁻¹ s⁻¹. For the same protein, the Kcat/Km (Ac-PRG˜LLT-Ahxh-Hynic) was 73300 M⁻¹ s⁻¹, the Kcat/Km [16] was 1880 M⁻¹ s⁻¹ and the Kcat/Km [17] was 0 M⁻¹ s⁻¹. For the same protein, the Kcat/Km [18] was 33800 M⁻¹ s⁻¹ and the Kcat/Km (Piv-PLG˜LYT-Ahxh-Hynic) was 281000 M⁻¹ s⁻¹.
